Data set [1] has as its system CO/N=C(\C(=O)N[C@@H]1C(=O)N2C(C(=O)O)=C(COC(C)=O)CS[C@H]12)c1csc(N)n1. The data set is described as follows: Michaelis-Menten hydrolysis kinetics, purified enzyme. In kind it is biochemical, Escherichia coli. The note with it: active site (catalytic Ser64).
Data set [2] has as its system CC(=O)OCC1=C(C(=O)O)N2C(=O)[C@@H](NC(=O)Cc3cccs3)[C@H]2SC1. Described as above. In kind it is biochemical, Escherichia coli. As to conditions: active site (catalytic Ser64).

“AmpC β-lactamase (Escherichia coli K-12; E235K)”: in data set [1], the Michaelis constant (Km) was 77 µM and the kcat was found to be 6.9 s⁻¹. For the same substance, in data set [2], the Michaelis constant (Km) worked out at 24 µM and the kcat was 84.6 s⁻¹.
Regarding “AmpC β-lactamase (Escherichia coli K-12; T86I)”, in data set [1], the Km is 295 µM and the kcat is 9.2 s⁻¹.

Values taken from paper PMC2815101.
